# Measurements published in article PMC4330388.
# T1: PPR10 (Zea mays, UniProt B8Y6I0 96-786)
# T1 sequence: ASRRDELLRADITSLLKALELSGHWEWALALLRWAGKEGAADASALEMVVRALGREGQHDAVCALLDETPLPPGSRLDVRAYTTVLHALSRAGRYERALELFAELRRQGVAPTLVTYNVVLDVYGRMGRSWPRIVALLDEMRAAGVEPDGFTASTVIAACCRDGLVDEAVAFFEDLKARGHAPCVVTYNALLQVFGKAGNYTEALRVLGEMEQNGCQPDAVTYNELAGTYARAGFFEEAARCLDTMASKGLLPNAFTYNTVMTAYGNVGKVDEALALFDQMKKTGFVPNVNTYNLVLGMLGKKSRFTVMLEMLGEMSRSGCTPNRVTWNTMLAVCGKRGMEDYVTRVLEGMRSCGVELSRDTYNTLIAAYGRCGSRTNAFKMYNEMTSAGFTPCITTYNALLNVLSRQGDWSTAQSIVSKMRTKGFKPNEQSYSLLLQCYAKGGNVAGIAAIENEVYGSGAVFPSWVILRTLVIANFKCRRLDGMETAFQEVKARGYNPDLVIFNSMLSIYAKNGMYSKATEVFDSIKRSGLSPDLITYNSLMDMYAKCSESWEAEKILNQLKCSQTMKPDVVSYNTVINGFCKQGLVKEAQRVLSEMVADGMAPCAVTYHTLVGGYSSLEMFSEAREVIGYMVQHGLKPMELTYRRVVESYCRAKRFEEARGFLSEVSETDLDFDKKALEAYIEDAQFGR
# B1: atpH RNA 17-mer (ssRNA)
# RNA: GUAUCCUUAACCAUUUC
# Biological target: T1, PPR10
# Test: SEC-SAXS
binder,measurement,value
B1,binding result,binds
